From PMC12136491, “Establishment of an efficient one-step enzymatic synthesis of cyclic-2,3-diphosphoglycerate” (Frontiers in Microbiology, 2025) come the findings set out here.

“And” between values parts separate entries of the source, which are not always exact repeats. Equal entries are not always repeated.

The data set concerns the molecule itself. The data set can be described thus: SEC; native molecular mass; Superose Increase 10/300 column, 50 mM MES/KOH (pH 6.5), 400 mM KCl, flow rate 0.5 mL/min, 5 mg of protein loaded. (In general: In gel filtration, larger molecules generally elute earlier.)

A word on the stoichiometry N: it is a count of units in the complex or per binding partner.

B1: cyclic-2,3-diphosphoglycerate synthetase from Methanothermus fervidus, recombinant, without affinity tag (enzyme, UniProt O93732 1-460, looked up)
chain: MGETKKMICLVDGEHYFPVVKDSIEILDDLEHIDVVAVVFIGGTEKLQIEDPKEYSEKLGKPVFFGPDPKKIPYDVIKKCVKKYNADIVMDLSDEPVVDYTKRFRIASIVLKEGAVYQGADFKFEPLTEYDVLEKPSIKIIGTGKRIGKTAVSAYAARVIHKHKYNPCVVAMGRGGPREPEIVEGNKIEITAEYLLEQADKGVHAASDHWEDALMSRILTVGCRRCGGGMLGDTFITNVKRGAEIANKLDSDFVIMEGSGAAIPPVKTNRQIVTVGANQPMININNFFGPFRIGLADLVIITMCEEPMATTEKIKKVEKFIKEINPSANVIPTVFRPKPVGNVEGKKVLFATTAPKVVVGKLVNYLESKYGCDVVGVTPHLSNRPLLRRDLKKYINKADLMLTELKAAAVDVATRVAIEAGLDVVYCDNIPVVIDESYGNIDDAIIEVVEMAIDDFKNNR
notes: cyclic 2,3-diphosphoglycerate synthetase (cdpgs gene, 1,383 bp) of Methanothermus fervidus, Mfer_0077, CAA70986; calculated molecular mass 50.7 kDa; codon-optimized gene, no tag; also called MfcDPGS; cDPGS
B1: the “stoichiometry N” value is 2 and 4.
